In PMC6599559 (Journal of molecular biology, 2019):
One block for each binder: values may come before it.

Biological target: eukaryotic elongation factor 2 (eEF-2) from yeast (yeast (commercial yeast cake), UniProt P32324 1-842)
Assay: ITC

Sequence of eukaryotic elongation factor 2 (eEF-2) from yeast (P32324 whole entry): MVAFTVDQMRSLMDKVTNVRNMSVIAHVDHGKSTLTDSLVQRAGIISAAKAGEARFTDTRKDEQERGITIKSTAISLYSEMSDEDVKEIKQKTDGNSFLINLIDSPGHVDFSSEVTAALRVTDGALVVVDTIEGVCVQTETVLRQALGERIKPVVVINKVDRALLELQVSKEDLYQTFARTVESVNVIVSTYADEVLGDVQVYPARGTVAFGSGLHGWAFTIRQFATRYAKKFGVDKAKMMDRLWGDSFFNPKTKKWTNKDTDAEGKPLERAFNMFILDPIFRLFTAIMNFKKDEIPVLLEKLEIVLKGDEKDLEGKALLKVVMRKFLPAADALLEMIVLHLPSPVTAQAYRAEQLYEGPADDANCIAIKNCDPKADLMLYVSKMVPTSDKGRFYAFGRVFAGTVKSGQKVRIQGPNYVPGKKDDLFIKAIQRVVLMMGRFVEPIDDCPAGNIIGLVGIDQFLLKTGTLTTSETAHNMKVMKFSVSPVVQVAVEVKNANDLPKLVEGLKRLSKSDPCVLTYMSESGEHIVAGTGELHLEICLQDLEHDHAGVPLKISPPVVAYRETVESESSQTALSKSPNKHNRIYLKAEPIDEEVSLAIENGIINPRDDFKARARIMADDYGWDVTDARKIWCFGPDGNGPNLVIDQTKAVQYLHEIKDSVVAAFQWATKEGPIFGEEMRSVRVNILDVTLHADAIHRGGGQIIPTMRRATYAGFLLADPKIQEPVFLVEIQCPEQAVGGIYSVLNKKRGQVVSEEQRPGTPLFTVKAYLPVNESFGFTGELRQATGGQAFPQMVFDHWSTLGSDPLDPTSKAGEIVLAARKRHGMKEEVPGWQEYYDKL

Kd: 15.4 to 19 µM
B1: eEF-2K_(592–725), C-terminal fragment of human eukaryotic elongation factor 2 kinase (residues E592-E725) (domain or fragment, UniProt O00418 592-725, looked up)
chain: ENKTKGFDYLLKAAEAGDRQSMILVARAFDSGQNLSPDRCQDWLEALHWYNTALEMTDCDEGGEYDGMQDEPRYMMLAREAEMLFTGGYGLEKDPQRSGDLYTQAAEAAMEAMKGRLANQYYQKAEEAWAQMEE

Kd: 4.2 to 8.9 µM
B2: eEF-2K_(562–725), C-terminal fragment of human eukaryotic elongation factor 2 kinase (residues G562-E725) (domain or fragment)
chain: SHMGELEAIVGLGLMYSQLPHHILADVSLKETEENKTKGFDYLLKAAEAGDRQSMILVARAFDSGQNLSPDRCQDWLEALHWYNTALEMTDCDEGGEYDGMQDEPRYMMLAREAEMLFTGGYGLEKDPQRSGDLYTQAAEAAMEAMKGRLANQYYQKAEEAWAQMEE
